# Measurements as given in publication PMC11626777.
# B1: HDAC5: OSMI-1 (protein)
# parent chain: MNSPNESDGMSGREPSLGILPRTPLHSIPVAVEVKPVLPGAMPSSMGGGGGGSPSPVELRGALAGPMDPALREQQLQQELLVLKQQQQLQKQLLFAEFQKQHDHLTRQHEVQLQKHLKQQQEMLAAKRQQELEQQRQREQQRQEELEKQRLEQQLLILRNKEKSKESAIASTEVKLRLQEFLLSKSKEPTPGGLNHSLPQHPKCWGAHHASLDQSSPPQSGPPGTPPSYKLPLLGPYDSRDDFPLRKTASEPNLKVRSRLKQKVAERRSSPLLRRKDGTVISTFKKRAVEITGTGPGVSSVCNSAPGSGPSSPNSSHSTIAENGFTGSVPNIPTEMIPQHRALPLDSSPNQFSLYTSPSLPNISLGLQATVTVTNSHLTASPKLSTQQEAERQALQSLRQGGTLTGKFMSTSSIPGCLLGVALEGDTSPHGHASLLQHVCSWTGRQQSTLIAVPLHGQSPLVTGERVATSMRTVGKLPRHRPLSRTQSSPLPQSPQALQQLVMQQQHQQFLEKQKQQQMQLGKILTKTGELSRQPTTHPEETEEELTEQQEALLGEGALTIPREGSTESESTQEDLEEEEEEEEEEEEDCIQVKDEDGESGPDEGPDLEESSAGYKKLFADAQQLQPLQVYQAPLSLATVPHQALGRTQSSPAAPGSMKSPTDQPTVVKHLFTTGVVYDTFMLKHQCMCGNTHVHPEHAGRIQSIWSRLQETGLLGKCERIRGRKATLDEIQTVHSEYHTLLYGTSPLNRQKLDSKKLLGPISQKMYAMLPCGGIGVDSDTVWNEMHSSSAVRMAVGCLVELAFKVAAGELKNGFAIIRPPGHHAEESTAMGFCFFNSVAITAKLLQQKLSVGKVLIVDWDIHHGNGTQQAFYNDPSVLYISLHRYDNGNFFPGSGAPEEVGGGPGVGYNVNVAWTGGVDPPIGDVEYLTAFRTVVMPIAQEFSPDVVLVSAGFDAVEGHLSPLGGYSVTARCFGHLTRQLMTLAGGRVVLALEGGHDLTAICDASEACVSALLSVELQPLDEAVLQQKPSVNAVATLEKVIEIQSKHWSCVQRFAAGLGCSLREAQTGEKEEAETVSAMALLSVGAEQAQAVATQEHSPRPAEEPMEQEPAL
# B2: HDAC5: Ogtfl/fl; Bglap-Cre (Ogt cKO) (protein)
# parent chain: B1 parent chain
# Key:
# [1] = western blot of HDAC5 protein, mBMSCs; details: glycan lost; control: DMSO
# [2] = HDAC5 protein level in bone tissue; details: glycan lost; control: Ogtfl/fl mice
Protein,expression_or_secretion [1],expression_or_secretion [2]
B1,increases,
B2,,increases
